This note sets out measurements from patent US7390635 (CANCER RESEARCH INSTITUTE OF CONTRA COSTA, dated 2008).

Experiment [1] concerns the target T1, BA46 antigen of the human milk fat globule (HMFG) (human, UniProt Q08431 24-387, limits assumed).
T1 construct: also called 46 kDa HMFG antigen; human milk fat globule preparation
T1 sequence (looked up): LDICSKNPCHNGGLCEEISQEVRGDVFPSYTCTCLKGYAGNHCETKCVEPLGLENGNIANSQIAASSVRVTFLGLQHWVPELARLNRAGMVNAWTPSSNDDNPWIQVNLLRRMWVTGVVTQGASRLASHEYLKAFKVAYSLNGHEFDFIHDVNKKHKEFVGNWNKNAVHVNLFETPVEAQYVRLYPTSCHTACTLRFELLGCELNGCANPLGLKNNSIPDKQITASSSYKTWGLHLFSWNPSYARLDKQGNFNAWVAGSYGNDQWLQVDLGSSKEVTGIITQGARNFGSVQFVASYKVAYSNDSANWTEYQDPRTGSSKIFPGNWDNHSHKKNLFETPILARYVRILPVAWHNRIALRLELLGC
Nature of the experiment: competition RIA on plate-bound HMFG; reciprocal of the concentration of unlabeled antibody giving 50% binding. The method, then:
The protocol for the assay was as follows.
Microtiter plates (Dynatech, Chantilly, Va.) were prepared with HMFG according to standard techniques (as described by Ceriani et al., in "Monoclonal Antibodies and Functional Cell Lines" (T. J. McKern et al. eds.), pp. 398-402, New York, Plenum Press, 1984). To each well was added 25 µl ^125I-Mc3 in RIA buffer (10% bovine calf serum, 0.3% TRITON™ X-100, 0.05% sodium azide pH 7.4, in phosphate buffered saline), and competed with 25 µl of either unlabeled murine antibody or murine-human chimeric antibody in RIA buffer at final concentrations in the nanomolar range.
Iodinations were performed with ^125I (17 Ci/mg, Nordion International Inc., Kanata, Ontario, Canada). 50 µg monoclonal antibody Mc3 was labeled (at a specific activity of ~10 mCi/mg) using the chloramine T method as described by Ceriani, R. L., and Blank, E. W. (1988) *Cancer Res.* 48: 4664-4672.

For experiment [2], the target named is T1, BA46 antigen of the human milk fat …. Nature of the experiment: affinity as summarised in the description; same assay as Example 10. As to the method: (§1) Binding studies were conducted as outlined earlier. Briefly, microliter plates were prepared using successive layers of methylated BSA (bovine serum albumin), glutaraldehyde, and a preparation of delipidated HMFG (Ceriani R. L. et al. (1977) PNAS (USA) 74:582-586). Each well was coated with 100 ng of HMFG. Competition experiments were conducted by adding to each well a standard amount of ^125I-MuMc3 and an appropriate dilution of unlabeled MuMc3 or HuMc3 in RIA buffer (10% bovine calf serum, 0.3 TRITON X-100™), 0.05% sodium azide pH 7.4, in PBS). For the determination of affinity constants, each antibody was tested in competition against itself.

For experiment [3] the target is unchanged. The experiment is described as follows: competition RIA on plate-bound delipidated HMFG, each antibody tested against itself; reciprocal of the concentration giving 50% maximal binding. The method, then: as §1

B1: murine-human chimeric Mc3 antibody (ChMc3) (antibody, V domains shown)
VH: EVQLQQSGPELVKPGASMKISCEASGYSFTGYTMHWVKQSHGMNLEWIGLINPYNGGTVYNQKFQDKATLTVDKSSGTAYMELLSLTSEDSAVYFCARRWRYTMDYWGQGTSVTVSS
VL: DIVMTQSHKFMSTSEGDWVSITCKASQDVSIGVAWYQQKPGQSPKLLIYSASSRYTGVPDRFSGSGSGTDFTFTISSVQAEDLAVYYCQQHYTSPFTFGSGTNLEIK
notes: also called Chimeric antibody
For B1, the Ka in experiment [1] stood at 5e+08 M⁻¹.

B2: murine monoclonal antibody Mc3 (antibody, V domains shown)
VH: EVQLQQSGPELVKPGASMKISCEASGYSFTGYTMHWVKQSHGMNLEWIGLINPYNGGTVYNQKFQDKATLTVDKSSGTAYMELLSLTSEDSAVYFCARRWRYTMDYWGQGTSVTVSS
VL: DIVMTQSHKFMSTSEGDWVSITCKASQDVSIGVAWYQQKPGQSPKLLIYSASSRYTGVPDRFSGSGSGTDFTFTISSVQAEDLAVYYCQQHYTSPFTFGSGTNLEIK
notes: Whole murine monoclonal antibody from the Mc3 hybridoma, kappa light chain; As the tracer it was labelled with 125I by the chloramine T method; also called MuMc3; Mc3 murine antibody
On to B2, for which the Ka in experiment [1] was determined as 3e+08 M⁻¹.

B3: humanized Mc3 antibody (HuMc3) (antibody, human IgG1, V domains shown)
VH: EVQLVQSGAEVKKPGASVKVSCKASGYSFTGYTMHWVKQSPGMNLEWIGLINPYNGGTVYNQKFQDKATLTVDKSTSTAYMELSSLRSEDTAVYFCARRWRYTMDYWGQGTLVTVSS
VL: DIVMTQSPDSLAVSLGERATITCKASQDVSIGVAWYQQKPGQSPKLLIYSASSRYTGVPDRFSGSGSGTDFTLTISSLQAEDVAVYYCQQHYTSPFTFGSGTKVEIK
notes: Humanized variable regions cloned into pAH4604 (human gamma 1 constant region) and pAG4622 (human kappa constant region), so a human IgG1 kappa; also called HuMc3v2
For B3, the Ka turned out to be 6.2e+08 M⁻¹ in experiment [2] and 6e+08 M⁻¹ in experiment [3].
